Consider 1 molecule from article PMC7840129, “Structural basis for heme-dependent NCoR binding to the transcriptional repressor REV-ERBβ” (Science Advances, 2021).

One assay deals with T1, Apo REV-ERBβ LBD (Homo sapiens, UniProt Q14995).
T1 construct: The human REV-ERBβ LBD (residues 381 to 579) was previously cloned; 6xHis with 3C protease cleavage site (N, cleaved yes); made in house; host or cells: E. coli BL21(DE3)
T1 sequence (Q14995 381-579): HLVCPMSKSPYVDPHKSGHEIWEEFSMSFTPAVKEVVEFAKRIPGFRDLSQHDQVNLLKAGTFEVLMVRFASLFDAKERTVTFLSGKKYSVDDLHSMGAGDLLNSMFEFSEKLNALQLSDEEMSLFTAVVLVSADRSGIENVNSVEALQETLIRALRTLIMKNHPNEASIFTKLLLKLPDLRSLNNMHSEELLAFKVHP
In words: ITC, NCoR RID constructs with apo REV-ERBβ LBD. The assay is classed as binding. Particulars: WT RID; for Kd: LBD 150 μM (2 × 20 injections) into 15 μM RID, pH 7.4, 25°C, two nonsymmetric sites, microscopic K model. On the procedure:
(§1) Human REV-ERBβ LBD was expressed in BL21(DE3) Escherichia coli cells with an N-terminal hexahistidine (6xHis) tag separated by a 3C protease cleavage site. Expression was performed using auto-induction media: Cells were grown at 37°C for 5 hours, 30°C for 1 hour, and 18°C for 16 hours before harvesting by centrifugation. Pellets were resuspended in potassium phosphate lysis buffer [40 mM potassium phosphate (pH 7.4), 500 mM KCl, 15 mM imidazole, and 1 mM dithiothreitol (DTT)] supplemented with leupeptin, pepstatin A, lysozyme, and deoxyribonuclease (DNase) I and sonicated on ice. […] A 5-ml aliquot of 6xHis-tagged protein was purified by size exclusion chromatography using a Superdex 75 column equilibrated in time-resolved fluorescence energy transfer (TR-FRET) assay buffer [20 mM potassium phosphate (pH 7.4), 50 mM KCl, and 0.5 mM EDTA]; purified aliquots were stored at −80°C for TR-FRET assays. To cleave the 6xHis tag from the remaining protein, it was incubated overnight with 3C protease (generated in-house) via dialysis; then, protein was reloaded onto the HisTrap columns, and the flow-through was collected. Last, aggregates were removed by size exclusion chromatography using a Superdex 75 column and Hepes gel filtration buffer [20 mM Hepes (pH 7.4), 50 mM KCl, and 0.5 mM EDTA]. Greater than 95% purity was confirmed by SDS-PAGE. Protein was aliquoted and stored at −80°C.
(§2) ITC experiments were performed using a MicroCal iTC200. All experiments were solvent-matched and contained 0.1% DMSO (peptide vehicle) and 0.2% 0.2 M solution of NaOH (heme vehicle) final concentrations. NITPIC software ([37]) was used to calculate baselines and integrate curves and prepare experimental data for fitting in SEDPHAT, which was used to generate final binding affinity and thermodynamic parameter measurements ([38]).Final figures were exported to GUSSI for publication-quality figure preparation ([39]).
[…] REV-ERBβ LBD in the syringe was titrated into the RID in the sample cell as described above, with the exception that a total of 4 molar equivalents were titrated over 20 injections. […] For apo LBD into WT RID, data were fit to A + B ↔ AB + B ↔ BA + A ↔ BAB, with two nonsymmetric sites, microscopic K model in SEDPHAT. For apo LBD into ΔID2, data were fit to an A + B ↔ AB hetero-association model in SEDPHAT. For heme-bound LBD into WT RID, data were fit to an A + B ↔ AB hetero-association model in SEDPHAT.
NCoR RID constructs (including WT, ΔID1, ΔID2, and ΔID1ΔID2) were transformed into BL21(DE3) E. coli cells, which were grown in 2 liters of Terrific Broth media [yeast extract (24 g/liter), tryptone (12 g/liter), KH2PO4 ([…]), K2HPO4 ([…]), and glycerol (4 ml/liter)] at 37°C until OD600 reached 0.7 to 0.8. Expression was induced with 0.75 mM IPTG for 2 hours at 37°C before cells were harvested by centrifugation. Pellets were washed 1× with phosphate-buffered saline and stored at −80°C until purification. Pellets were resuspended on ice in Hepes lysis buffer [25 mM Hepes (pH 7.4), 150 mM NaCl, 2 M urea, and 15 mM imidazole] supplemented with 1 mM DTT, pepstatin A, leupeptin, lysozyme, DNase I, phenylmethylsulfonyl fluoride, and 0.1% Tween 20, and cell slurry was sonicated on ice. Lysed cells were centrifuged at 20,000g for 30 min at 4°C, and soluble lysate was filtered before IMAC purification using 2 × 5 ml HisTrap columns (GE Healthcare) affixed to an ÄKTA pure; elution buffer was 25 mM Hepes (pH 7.4), 150 mM NaCl, and 500 mM imidazole. Fractions were pooled; additional protease inhibitors were added, and protein was dialyzed against 25 mM Hepes (pH 7.0), 150 mM NaCl, and 1 mM DTT with Tobacco etch virus (TEV) protease to cleave the Trx-6xHis tag at 4°C overnight. Cleaved protein was reloaded on HisTrap columns and eluted with 50 mM bis-tris (pH 6.7), 150 mM NaCl, and 1 mM DTT. […]
A general note: Isothermal titration calorimetry measures the heat released or taken up as one component is titrated into another.

The target of another assay is T2, heme-bound REV-ERBβ LBD (Homo sapiens, UniProt Q14995).
T2 construct: The human REV-ERBβ LBD (residues 381 to 579) was previously cloned; 6xHis with 3C protease cleavage site (N, cleaved yes); made in house; host or cells: E. coli BL21(DE3)
T2 sequence (Q14995 381-579): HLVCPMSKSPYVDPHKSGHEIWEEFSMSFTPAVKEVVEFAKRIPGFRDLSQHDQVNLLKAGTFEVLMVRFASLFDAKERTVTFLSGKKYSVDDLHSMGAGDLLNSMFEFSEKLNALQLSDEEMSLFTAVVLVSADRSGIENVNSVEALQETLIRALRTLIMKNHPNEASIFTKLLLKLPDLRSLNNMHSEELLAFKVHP
In words: ITC, NCoR RID constructs with heme-bound REV-ERBβ LBD. The assay is classed as binding. On the procedure: as §1, §2
NCoR RID constructs (WT, ΔID1, ΔID2, or ΔID1ΔID2) were prepared in assay buffer at 15 μM, and REV-ERBβ LBD was prepared at 300 μM. REV-ERBβ LBD in the syringe was titrated into the RID in the sample cell as described above, with the exception that a total of 4 molar equivalents were titrated over 20 injections. […] For apo LBD into WT RID, data were fit to A + B ↔ AB + B ↔ BA + A ↔ BAB, with two nonsymmetric sites, microscopic K model in SEDPHAT. For apo LBD into ΔID2, data were fit to an A + B ↔ AB hetero-association model in SEDPHAT. For heme-bound LBD into WT RID, data were fit to an A + B ↔ AB hetero-association model in SEDPHAT.
NCoR RID constructs (including WT, ΔID1, ΔID2, and ΔID1ΔID2) were transformed into BL21(DE3) E. coli cells, which were grown in 2 liters of Terrific Broth media [yeast extract (24 g/liter), tryptone (12 g/liter), KH2PO4 ([…]), K2HPO4 ([…]), and glycerol (4 ml/liter)] at 37°C until OD600 reached 0.7 to 0.8. Expression was induced with 0.75 mM IPTG for 2 hours at 37°C before cells were harvested by centrifugation. Pellets were washed 1× with phosphate-buffered saline and stored at −80°C until purification. Pellets were resuspended on ice in Hepes lysis buffer [25 mM Hepes (pH 7.4), 150 mM NaCl, 2 M urea, and 15 mM imidazole] supplemented with 1 mM DTT, pepstatin A, leupeptin, lysozyme, DNase I, phenylmethylsulfonyl fluoride, and 0.1% Tween 20, and cell slurry was sonicated on ice. […]

Setting [1] is: +Heme LBD, WT RID, 25°C, A + B ↔ AB model, 95% CI.

Read-outs that look alike come from different tables or passages of the source.

B1: WT RID: mouse NCoR RID (residues 1942 to 2208 in the X50 splice variant) (protein, UniProt Q60974 1942-2208, looked up, fragment)
chain: TITAANFIDVIITRQIASDKDARERGSQSSDSSSSLSSHRYETASDAIEVISPASSPAPPQEKPQAYQPDMVKANQAENESTRQYEGPLHHYRSQQESPSPQQQPPLPPSSQSEGMGQVPRTHRLITLADHICQIITQDFARNQVPSQASTSTFQTSPSALSSTPVRTKTSSRYSPESQSQTVLHPRPGPRVSPENLVDKSRGSRPGKSPERSHIPSEPYEPISPPQGPAVHEKQDSMLLLSQRGVDPAEQRSDSRSPGSISYLPSF
modifications: X50 splice variant
As a reminder, the Kd is the constant that tells how readily two partners part at equilibrium. Consider B1, for which the “LBD:RID stoichiometry” value in the assay with Apo REV-ERBβ LBD is “two apo LBDs interact with one RID, most likely with positive cooperativity”. In addition, the Kd in the assay with Apo REV-ERBβ LBD (95% CI, read-out: KD, Site 1) stood at 12 nM. Also, the Kd in the assay with Apo REV-ERBβ LBD (95% CI, read-out: KD, Site 2) was 740 nM. Moreover, in the assay with Apo REV-ERBβ LBD (site 1, 25°C, 95% CI), the “TΔS, Site 1” value is 2.5 kcal/mol; the “ΔG, Site 1” value was -10.8 kcal/mol; the “ΔH, Site 1” value is -8.3 kcal/mol. In the assay with Apo REV-ERBβ LBD (site 2, 25°C, 95% CI), the “TΔS, Site 2” value was 12 (95% CI: 11 to13) kcal/mol; the “ΔG, Site 2” value was -8.4 kcal/mol; the “ΔH, Site 2” value turned out to be 3.2 kcal/mol. Moreover, in the assay with heme-bound REV-ERBβ LBD (setting [1]), the TΔS amounted to 11.2 kcal/mol, the ΔG is -9.6 kcal/mol and the ΔH is listed as 1.7 kcal/mol. Further, the Kd in the assay with heme-bound REV-ERBβ LBD (+Heme LBD, WT RID, LBD 300 μM into 15 μM RID, pH 7.4, 25°C, A + B ↔ AB hetero-association model, 95% CI) was 99 nM. Further, in the assay with heme-bound REV-ERBβ LBD (heme-bound LBD, RID mutants and WT), the “RID binding to heme-bound LBD (in words)” value was “must involve positive cooperativity”.
